{"source": "patent US12679888B2", "about": "“IL-18 binding protein (IL-18BP) and antibodies for treating inflammatory diseases” (AB2 BIO SA, priority 2015, dated 2026)", "key": {"[1]": {"target": "T1, human interleukin-18 (Homo sapiens, UniProt Q14116)", "T1 sequence (Q14116 37-193)": "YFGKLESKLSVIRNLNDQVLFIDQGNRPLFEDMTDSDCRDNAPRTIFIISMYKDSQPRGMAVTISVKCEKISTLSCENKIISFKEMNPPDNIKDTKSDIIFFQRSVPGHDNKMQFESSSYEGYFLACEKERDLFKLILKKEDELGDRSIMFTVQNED", "assay": "Luminex screening first step: monoclonal antibodies binding on IL-18", "conditions": "IL-18 attached to Luminex beads", "text": "Mice were vaccinated against human interleukin-18 using a technology allowing immunization with properly folded proteins. Prior to immunization, genetically modified mice were selected for major histocompatibility complexes supposedly sensitive to IL-18 surface area epitopes binding IL-18BP. Following immunization, B cells were isolated from spleen and hybridized following standard hybridoma technology. Hybridoma were sorted onto microplates and then tested for expression of monoclonal anti-IL-18 antibodies targeting IL-18 epitopes included in IL-18BP binding site. The screening was performed in 3 sequential and selective steps: […]"}, "[2]": {"target": "T2, IL-18 (Homo sapiens, UniProt Q14116)", "T2 sequence (Q14116 37-193)": "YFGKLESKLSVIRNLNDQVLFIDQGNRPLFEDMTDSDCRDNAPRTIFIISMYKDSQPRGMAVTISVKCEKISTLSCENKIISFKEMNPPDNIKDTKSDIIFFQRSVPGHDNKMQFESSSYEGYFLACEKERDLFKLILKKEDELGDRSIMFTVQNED", "assay": "Luminex screening second step: biotinylated IL-18BP binding on IL-18 previously complexed to monoclonal antibody", "text": "Second step. Potential antibodies targeting IL-18 on IL-18BP binding site were rescreened in competition with IL-18BP, but not with IL-18BP fusions with Fc antibody domains, or other type of fusions, in order to prevent false antibody positive candidates due to steric hindrance created by the fused peptide. For this, monoclonal antibodies were bound to Luminex beads carrying IL-18. The complex was then exposed to biotinylated IL-18BP in order to identify interference to previously identified anti-IL-18 antibodies (see Table 7, Column #2)."}, "[3]": {"target": "T3, IL-18 previously complexed to IL-18BP (Homo sapiens, UniProt Q14116)", "T3 sequence (Q14116 37-193)": "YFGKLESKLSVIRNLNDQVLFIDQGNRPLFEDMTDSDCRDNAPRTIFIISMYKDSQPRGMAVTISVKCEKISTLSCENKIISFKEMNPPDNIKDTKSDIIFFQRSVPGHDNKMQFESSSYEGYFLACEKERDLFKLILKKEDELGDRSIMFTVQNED", "T3 sequence (O95998 31-194 partner)": "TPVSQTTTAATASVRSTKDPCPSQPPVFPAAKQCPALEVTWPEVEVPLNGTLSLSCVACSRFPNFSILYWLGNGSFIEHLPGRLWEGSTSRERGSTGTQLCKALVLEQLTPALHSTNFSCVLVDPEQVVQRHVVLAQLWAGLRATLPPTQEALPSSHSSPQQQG", "assay": "Luminex screening third step: monoclonal antibody binding on IL-18 previously complexed to IL-18BP", "conditions": "for fluorescence signal after binding IL-18 in the presence of IL-18BP: third screening step", "text": "Third step. A third screening program was undertaken with Luminex beads linked to IL-18BP and then complexed to interleukin-18, assuring the presentation of properly folded recombinant IL-18 to positive antibody candidates."}, "[4]": {"target": "T2, IL-18", "assay": "KD of monoclonal antibodies by titration with a defined IL-18 molarity (EC50, Law of Mass Action)", "assay_type": "binding", "procedure": "The respective KD values of each monoclonal antibody was calculated following titration of the antibodies with a defined IL-18 molarity and derived from the obtained EC50 values with the Law of Mass Action (see above)."}}, "note": "Several values for one entry are separate records, joined by “and”; a condition that tells them apart may be missing. Identical values can stand only once. Like-named read-outs stand apart in the source and are kept apart here."}
{"molecule": "Antibody 132H4: monoclonal anti-IL-18 antibody; VH SEQ ID NO 23, VK SEQ ID NO 24 (antibody, V domains shown, Antibody 132H4 VH variable domain sequence; Antibody 132H4 VK variable domain sequence) VH: EVKLVESGGGLVKPGGSLKLSCAASGFTFSNYAMSWVRQNPAKRLEWVATISSGGANIYYPDSVKGRFIISRDNARNTLYLQMSSLRSEDTAMYYCARGDYFNHFWFAYWGQGTLVTVSA VL: DVLMTQTPLSLPVSLGDQASISCRSSQSIVHSNGNTYLEWYLQKPGQSPKFLIYKVSNRFSGVPDRFSGSGSGTDFTLKINRVEAEDLGIYYCFQGSHVPWTFGGGTKLEIK", "values": [{"measurement": "Monoclonal antibodies binding on IL-18, Fluorescence intensity", "setting": "[1]", "value": "23 839"}, {"measurement": "IL-18BP binding on IL-18 previously complexed to monoclonal antibody, Fluorescence intensity", "setting": "[2]", "value": "1 488"}, {"measurement": "fluorescence signal after binding IL-18 in the presence of IL-18BP", "setting": "[3]", "value": "very low fluorescence signal"}]}
{"molecule": "Antibody 107C6: monoclonal anti-IL-18 antibody; VH SEQ ID NO 9, VK SEQ ID NO 10 (antibody, V domains shown, Antibody 107C6 VH variable domain sequence; Antibody 107C6 VK variable domain sequence) VH: QIQLVQSGPELKKPGETVKLSCRASGYTFTNYGMNWVKQAPGKGLKWMGWINTYSGVPTYADDFKGQFAFSLETSAATAFLQINNLKDEDTATYFCAREGYSTTRSMDYWGQGTSVTVSS VL: DIVMSQSPSSLAVSAGEKVTMSCKSSQSLLDSRTRKNYLVWYQQKPGQSPKLLIYWASTRGSGVPDRFTGSGSGTDFTLTISSVQAEDLAVYYCKQSYNLRTFGGGTKLEIK", "values": [{"measurement": "Monoclonal antibodies binding on IL-18, Fluorescence intensity", "setting": "[1]", "value": "26 250"}, {"measurement": "IL-18BP binding on IL-18 previously complexed to monoclonal antibody, Fluorescence intensity", "setting": "[2]", "value": "1 389"}, {"measurement": "fluorescence signal after binding IL-18 in the presence of IL-18BP", "setting": "[3]", "value": "very low fluorescence signal"}]}
{"molecule": "Antibody 108F8: monoclonal anti-IL-18 antibody; VH SEQ ID NO 11, VK SEQ ID NO 12 (antibody, V domains shown, Antibody 108F8 VH variable domain sequence; Antibody 108F8 VK variable domain sequence) VH: QIQLVQSGPDSKKPGETVKLSCRASGYTFTNYGMNWVKQAPGKGLKWMGWINTYSGVPTYADDFKGQFAFSLETSAATAFLQINNLKDEDTATYFCAREGYSTTRSMDYWGQGTSVTVSS VL: DIVMSQSPSSLAVSAGEKVTMSCKSSQSLLDSRTRKNYLVWYQQKPGQSPKLLIYWASTRGSGVPDRFTGSGSGTDFTLTISSVQAEDLAVYYCKQSYNLRTFGGGTKLEIK", "values": [{"measurement": "Monoclonal antibodies binding on IL-18, Fluorescence intensity", "setting": "[1]", "value": "25 126"}, {"measurement": "IL-18BP binding on IL-18 previously complexed to monoclonal antibody, Fluorescence intensity", "setting": "[2]", "value": "1 292"}, {"measurement": "fluorescence signal after binding IL-18 in the presence of IL-18BP", "setting": "[3]", "value": "very low fluorescence signal"}]}
{"molecule": "Antibody 109A6: monoclonal anti-IL-18 antibody; VH SEQ ID NO 13, VK SEQ ID NO 14 (antibody, V domains shown, Antibody 109A6 VH variable domain sequence; Antibody 109A6 VK variable domain sequence) VH: EVQLQQSGAELVKPGASVKLSCTASGFKIKDTYIHWVIQRPAQGLEWIGRIDPANGNTIYGSKFQGKATLTADTSSNTAYIHLSSLTSGDSAVYYCAGYVWFAYWGQGTLVTVSA VL: DVVMTQVPLSLPVSLGDQASISCRSSQRLVHSNGNTYLHWFLQKPGQSPKLLIYTVSNRFSGVPDRFSGSGSGTDFTLKISRVEAEDLGVYFCSQSTLVPWTFGGGTKLEIK", "values": [{"measurement": "Monoclonal antibodies binding on IL-18, Fluorescence intensity", "setting": "[1]", "value": "25 848"}, {"measurement": "fluorescence signal after binding IL-18 in the presence of IL-18BP", "setting": "[3]", "value": "very low fluorescence signal"}]}
{"molecule": "Antibody 131B4: monoclonal anti-IL-18 antibody; VH SEQ ID NO 18, 103 or 109, VK SEQ ID NO 19 (antibody, V domains shown) VH: EVQVQQSGAELVKPGASVKLSCTASGFKIKDTYIHWLKQRPEQGLEWIGRIDPANGNTIYGSKFQGKATITADTSSNTAYIQLSSLTSGDTAVYFCAGYVWFAYWGQGTLVTVSA VL: DAVLTQTPLSLPVSLGDQASISCTSSQSLVHSNGNTYLHWYLQKPGQSPKLLIYKVSDRFSGVPDRFSGSGSGTDFTLMITRVEAEDLGVYFCSQSSLVPWTFGGGTKLEVK", "values": [{"measurement": "Monoclonal antibodies binding on IL-18, Fluorescence intensity", "setting": "[1]", "value": "24 838"}, {"measurement": "IL-18BP binding on IL-18 previously complexed to monoclonal antibody, Fluorescence intensity", "setting": "[2]", "value": "1 656"}, {"measurement": "Column #3 Monoclonal antibody binding on IL-18 previously complexed to IL-18BP, Fluorescence intensity", "setting": "[3]; Luminex beads linked to IL-18BP, complexed to IL-18", "value": 41}, {"measurement": "fluorescence signal after binding IL-18 in the presence of IL-18BP", "setting": "[3]", "value": "very low fluorescence signal"}, {"measurement": "Kd", "setting": "[4]; mean of determinations, read-out: KD, Mean", "value": 0.015, "unit": "nM"}, {"measurement": "Kd", "setting": "[4]; single determinations, read-out: KD", "value": "0.02 nM and 0.01 nM"}]}
